Each block holds one binder with its values, some of them ahead of it.
Tests used:
[1] = biological target: deglycosylated human CD25 (SinoBiological) (Homo sapiens, UniProt P01589, deglycosylated with N-glycosidase F); test: crystal structure
[2] = biological target: cynomolgus CD25 on HSC-F cells (cynomolgus CD25+) (Macaca fascicularis, UniProt H6WS54); test: flow cytometry on cells
[3] = biological target: human CD25 on SU-DHL1 tumor cells (human CD25+) (Homo sapiens, UniProt P01589); test: flow cytometry on cells
Sequence of human CD25 on SU-DHL1 tumor cells (human CD25+) (P01589 22-272): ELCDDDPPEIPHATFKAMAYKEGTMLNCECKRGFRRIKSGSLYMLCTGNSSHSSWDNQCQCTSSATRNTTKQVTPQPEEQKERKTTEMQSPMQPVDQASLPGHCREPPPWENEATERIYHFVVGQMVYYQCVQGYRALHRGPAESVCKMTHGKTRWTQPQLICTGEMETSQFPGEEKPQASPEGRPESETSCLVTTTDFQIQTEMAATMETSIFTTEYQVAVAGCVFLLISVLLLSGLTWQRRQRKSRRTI

Sequence of deglycosylated human CD25 (SinoBiological) (P01589 22-213): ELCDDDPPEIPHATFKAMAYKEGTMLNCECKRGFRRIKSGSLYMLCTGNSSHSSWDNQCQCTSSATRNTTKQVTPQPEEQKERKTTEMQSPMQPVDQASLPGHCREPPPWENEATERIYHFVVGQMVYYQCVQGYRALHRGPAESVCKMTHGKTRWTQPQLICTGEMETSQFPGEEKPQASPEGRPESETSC

binding result [1]: binds
B1: Fab fragment of RG6292 (Fab, V domains shown)
VH: QVQLVQSGAEVKKPGSSVKVSCKASGGTFSSLAISWVRQAPGQGLEWMGGIIPIFGTANYAQKFQGRVTITADESTSTAYMELSSLRSEDTAVYYCARGGSVSGTLVDFDIWGQGTMVTVSS
VL: not shown

binding result [2]: binds
B2: RG6292, a-fucosylated human IgG1 mAb (anti-human CD25^NIB) (antibody, V domains shown)
VH: QVQLVQSGAEVKKPGSSVKVSCKASGGTFSSLAISWVRQAPGQGLEWMGGIIPIFGTANYAQKFQGRVTITADESTSTAYMELSSLRSEDTAVYYCARGGSVSGTLVDFDIWGQGTMVTVSS
VL: not shown

binding result [3]: binds
B3: RG6292 (FF), the fully fucosylated version of RG6292 (antibody, V domains shown)
VH: QVQLVQSGAEVKKPGSSVKVSCKASGGTFSSLAISWVRQAPGQGLEWMGGIIPIFGTANYAQKFQGRVTITADESTSTAYMELSSLRSEDTAVYYCARGGSVSGTLVDFDIWGQGTMVTVSS
VL: not shown
